Legend:
[1] = biological target: Galactia lindenii Type I lectin (GLL-I) (Galactia lindenii); assay: SDS-PAGE of unheated sample; purified GLL-I (15 ug per lane) in SDS without heating, with or without DTT; Coomassie staining
[2] = biological target: Galactia lindenii Type I lectin (GLL-I) (Galactia lindenii); assay: SDS-PAGE of heated sample; purified GLL-I (15 ug per lane) in SDS + DTT with heating (reducing conditions); Coomassie staining

Galactia lindenii Type I lectin (GLL-I) (natural protein)
stoichiometry N [1]: 4
stoichiometry N [2]: 2
